Here are results for 1 protein from patent US6413759.

Series [1] has as its target T1, SKC-2-N13 (SKC-2 with deletion of the first 13 N-terminal residues).
T1 chain: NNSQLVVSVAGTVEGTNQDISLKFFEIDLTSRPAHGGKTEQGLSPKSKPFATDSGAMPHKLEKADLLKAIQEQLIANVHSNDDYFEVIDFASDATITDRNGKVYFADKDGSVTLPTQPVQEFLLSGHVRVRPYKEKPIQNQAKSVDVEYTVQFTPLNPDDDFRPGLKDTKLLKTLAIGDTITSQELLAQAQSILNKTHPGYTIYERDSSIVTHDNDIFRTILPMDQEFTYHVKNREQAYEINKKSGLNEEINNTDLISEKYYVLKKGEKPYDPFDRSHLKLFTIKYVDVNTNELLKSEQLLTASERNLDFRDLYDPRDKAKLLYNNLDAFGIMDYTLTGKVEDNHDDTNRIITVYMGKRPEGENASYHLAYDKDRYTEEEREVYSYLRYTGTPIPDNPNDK

In series [2] the target is T2, SKC-2-C42 (SKC-2 with deletion of the last 42 residues, 373-414).
T2 chain: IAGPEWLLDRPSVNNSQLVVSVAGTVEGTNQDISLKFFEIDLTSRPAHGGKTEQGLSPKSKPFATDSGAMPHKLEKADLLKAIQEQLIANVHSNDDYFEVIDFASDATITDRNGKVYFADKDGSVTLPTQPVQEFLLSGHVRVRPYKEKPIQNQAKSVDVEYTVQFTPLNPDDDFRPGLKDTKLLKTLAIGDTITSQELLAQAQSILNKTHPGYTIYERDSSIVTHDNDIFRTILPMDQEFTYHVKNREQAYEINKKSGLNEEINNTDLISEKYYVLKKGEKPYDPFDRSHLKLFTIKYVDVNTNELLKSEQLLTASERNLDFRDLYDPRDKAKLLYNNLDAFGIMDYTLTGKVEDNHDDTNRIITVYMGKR

B1: human plasminogen (protein)
chain: EPLDDYVNTQGASLFSVTKKQLGAGSIEECAAKCEEDEEFTCRAFQYHSKEQQCVIMAENRKSSIIIRMRDVVLFEKKVYLSECKTGNGKNYRGTMSKTKNGITCQKWSSTSPHRPRFSPATHPSEGLEENYCRNPDNDPQGPWCYTTDPEKRYDYCDILECEEECMHCSGENYDGKISKTMSGLECQAWDSQSPHAHGYIPSKFPNKNLKKNYCRNPDRELRPWCFTTDPNKRWELCDIPRCTTPPPSSGPTYQCLKGTGENYRGNVAVTVSGHTCQHWSAQTPHTHNRTPENFPCKNLDENYCRNPDGKRAPWCHTTNSQVRWEYCKIPSCDSSPVSTEQLAPTAPPELTPVVQDCYHGDGQSYRGTSSTTTTGKKCQSWSSMTPHRHQKTPENYPNAGLTMNYCRNPDADKGPWCFTTDPSVRWEYCNLKKCSGTEASVVAPPPVVLLPDVETPSEEDCMFGNGKGYRGKRATTVTGTPCQDWAAQEPHRHSIFTPETNPRAGLEKNYCRNPDGDVGGPWCYTTNPRKLYDYCDVPQCAAPSFDCGKPQVEPKKCPGRVVGGCVAHPHSWPWQVSLRTRFGMHFCGGTLISPEWVLTAAHCLEKSPRPSSYKVILGAHQEVNLEPHVQEIEVSRLFLEPTRKDIALLKLSSPAVITDKVIPACLPSPNYVVADRTECFITGWGETQGTFGAGLLKEAQLPVIENKVCNRYEFLNGRVQSTELCAGHLAGGTDSCQGDSGGPLVCFEKDKYILQGVTSWGLGCARPNKPGVYVRVSRFVTWIEGVMRNN
As to B1, the “specific activity (agarose-fibrin plates, chromogenic substrate, clot lysis)” value in series [1] is on record as 2000-4000 lU/mg; in series [2], 50000-100000 IU/mg.
